Experimental data from the supplement of paper PMC10724198.
± gives the standard deviation of the averaged measurements.

System: Saccharomyces cerevisiae
Experiment: protein stability index of tFT-peptide fusion (C-terminal peptide) (PSI (0-1 scale)); higher = more stable (slower turnover)
Details: temperature: 30 C
Method: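 MPS profiling in S. cerevisiae of the yeast C-terminome library: the last 12 aa of each annotated ORF are fused to the C-terminus of a sfGFP-mCherry timer, after a GGGS linker. Cells are FACS-sorted into 8 mCherry/sfGFP bins and deep-sequenced. PSI runs from 0 (unstable) to 1 (stable); wild type and das1Δ backgrounds, two technical replicates each.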

[1] = genetic background: das1 deletion

Row | Sequence | protein stability index [1] | protein stability index (genetic background: wild type)
1 | PSPGFHMYGCHT [YLR156W C-terminal 12 aa] | 0.708 ± 0.022 | 0.695 ± 0.0084
2 | QPKIEINVDQYD [SPC1 C-terminal 12 aa] | 0.691 ± 0.047 | 0.6919 ± 0.0036
3 | TYFSFHILFHNL [YOR309C C-terminal 12 aa] | 0.614 ± 0.0097 | 0.221 ± 0.013
4 | TMNCNNADDMLF [YGR190C C-terminal 12 aa] | 0.6995 ± 0.004 | 0.677 ± 0.022
5 | NLANDEQPLHNL [MDM30 C-terminal 12 aa] | 0.699 ± 0.02 | 0.659 ± 0.03
6 | AREQLYEKLEQA [MIC27 C-terminal 12 aa] | 0.697 ± 0.007 | 0.6716 ± 0.0039
7 | ELSNNLNVDEFV [LRS4 C-terminal 12 aa] | 0.692 ± 0.0034 | 0.687 ± 0.034
8 | GDTLYEEFGISK [ARO8 C-terminal 12 aa] | 0.709 ± 0.0035 | 0.712 ± 0.046
9 | NRLKGQNSHQQR [RGS2 C-terminal 12 aa] | 0.7072 ± 0.0026 | 0.726 ± 0.035
10 | TEFEKIHRNTFN [REX4 C-terminal 12 aa] | 0.706 ± 0.012 | 0.723 ± 0.033
11 | RPVLSEEQRKNC [YDR344C C-terminal 12 aa] | 0.668 ± 0.0083 | 0.6794 ± 0.0048
12 | MQLARRIRGQFI [CSE4 C-terminal 12 aa] | 0.691 ± 0.0093 | 0.646 ± 0.02
13 | INDWLSSWKRSK [CRR1 C-terminal 12 aa] | 0.756 ± 0.017 | 0.727 ± 0.021
14 | KGDNITLITSAD [SME1 C-terminal 12 aa] | 0.688 ± 0.0079 | 0.685 ± 0.099
15 | MRNNNDTTFKSF [YNL013C C-terminal 12 aa] | 0.685 ± 0.015 | 0.698 ± 0.02
16 | NEDLGLSDIKVE [ZPR1 C-terminal 12 aa] | 0.694 ± 0.0078 | 0.68742 ± 0.00015
17 | TQLRYTSRGLYR [ECM30 C-terminal 12 aa] | 0.699 ± 0.018 | 0.689 ± 0.023
18 | RKFFSMRSLNSR [CHL1 C-terminal 12 aa] | 0.696 ± 0.014 | 0.6589 ± 0.0015
19 | KSVVVRSKEKQS [GAA1 C-terminal 12 aa] | 0.7002 ± 0.0014 | 0.441 ± 0.014
20 | ITKQKALDYHYL [CBS2 C-terminal 12 aa] | 0.698 ± 0.0089 | 0.667 ± 0.016
21 | YNKLESNLQIFM [ABZ1 C-terminal 12 aa] | 0.697 ± 0.017 | 0.744 ± 0.0097

Row | Sequence | protein stability index [1] | protein stability index (genetic background: wild type)
22 | SIHIDDFENENN [YGL036W C-terminal 12 aa] | 0.7059 ± 0.0061 | 0.675 ± 0.023
23 | HELESINSGGAW [YMR31 C-terminal 12 aa] | 0.702 ± 0.0072 | 0.689 ± 0.0016
24 | NEQVKKFFLNNV [NAS6 C-terminal 12 aa] | 0.701 ± 0.029 | 0.714 ± 0.01
25 | DEFCSQRSYTRF [MIN7 C-terminal 12 aa] | 0.716 ± 0.042 | 0.701 ± 0.032
26 | REGVVPPVGITN [EGO4 C-terminal 12 aa] | 0.706 ± 0.031 | 0.66 ± 0.024
27 | IMPDRFDYENYY [TMS1 C-terminal 12 aa] | 0.739 ± 0.0052 | 0.698 ± 0.0097
28 | MKDFSKNEQKEK [SEY1 C-terminal 12 aa] | 0.719 ± 0.037 | 0.72 ± 0.043
29 | PKRGGLFGFGRL [JIP4 C-terminal 12 aa] | 0.7853 ± 0.0046 | 0.762 ± 0.023
30 | ISLLSQFVYKGK [EXO1 C-terminal 12 aa] | 0.7 ± 0.016 | 0.678 ± 0.01
31 | DGSADLGGWETM [UBR2 C-terminal 12 aa] | 0.732 ± 0.026 | 0.733 ± 0.048
32 | SGWSAKIPVSMI [YCR045W-A C-terminal 12 aa] | 0.704 ± 0.014 | 0.698 ± 0.0077
33 | EIAADDTKKQEK [SOK2 C-terminal 12 aa] | 0.672 ± 0.027 | 0.684 ± 0.074
34 | EPEAEQAVEDTA [HSP30 C-terminal 12 aa] | 0.685 ± 0.018 | 0.6594 ± 0.0041
35 | AWIADLDHTVQP [CHS6 C-terminal 12 aa] | 0.718 ± 0.017 | 0.708 ± 0.011
36 | WLDKHTTTEAKP [YJU3 C-terminal 12 aa] | 0.7087 ± 0.0036 | 0.705 ± 0.0089
37 | QDKQVKSWWRFW [CBP4 C-terminal 12 aa] | 0.762 ± 0.016 | 0.7144 ± 0.0053
38 | TYQLIEKNRNSK [BLS1 C-terminal 12 aa] | 0.692 ± 0.019 | 0.678 ± 0.01
39 | IKLNKKKVKLST [HHO1 C-terminal 12 aa] | 0.664 ± 0.0086 | 0.6099 ± 0.0033
40 | EAQLSSNDEPLP [YCR102W-A C-terminal 12 aa] | 0.6904 ± 0.004 | 0.721 ± 0.089
41 | VSDSEQSDTKGI [UAF30 C-terminal 12 aa] | 0.6733 ± 0.0011 | 0.676 ± 0.016
42 | MRIRSDMSMMRW [COR1 C-terminal 12 aa] | 0.71 ± 0.0094 | 0.7133 ± 0.0025

Row | Sequence | protein stability index [1] | protein stability index (genetic background: wild type)
43 | WYSRKNINSRFE [MTR10 C-terminal 12 aa] | 0.714 ± 0.059 | 0.712 ± 0.046
44 | CDVKSSIIVGIL [YLR358C C-terminal 12 aa] | 0.638 ± 0.02 | 0.655 ± 0.059
45 | AAAIAGAAALLL [DAN1 C-terminal 12 aa] | 0.712 ± 0.013 | 0.732 ± 0.035
46 | RKLFLVVKDNIL [JIP3 C-terminal 12 aa] | 0.695 ± 0.016 | 0.734 ± 0.015
47 | TRPPCSPIAGYA [YOR345C C-terminal 12 aa] | 0.608 ± 0.017 | 0.628 ± 0.012
48 | AGTLDGRLAIWY [BPH1 C-terminal 12 aa] | 0.6943 ± 0.0032 | 0.686 ± 0.014
49 | LPEPNFFRKAAF [AXL1 C-terminal 12 aa] | 0.7202 ± 0.0035 | 0.7 ± 0.015
50 | FLDKNKKEQSDS [ECM9 C-terminal 12 aa] | 0.678 ± 0.029 | 0.771 ± 0.08
51 | GKEVRKLRPENQ [ILV5 C-terminal 12 aa] | 0.691 ± 0.014 | 0.654 ± 0.024
52 | KVHQGKYNGPGL [AI2 C-terminal 12 aa] | 0.69085 ± 0.00022 | 0.727 ± 0.037
53 | DLEGVLWRSYYA [BLM10 C-terminal 12 aa] | 0.744 ± 0.008 | 0.711 ± 0.0089
54 | LLRPPKPPLFCC [YGL123C-A C-terminal 12 aa] | 0.6368 ± 0.0044 | 0.418 ± 0.032
55 | AEELWADIVGSA [TRP2 C-terminal 12 aa] | 0.75126 ± 0.00045 | 0.684 ± 0.019
56 | EKHSFSTTQQVV [NRT1 C-terminal 12 aa] | 0.666 ± 0.019 | 0.664 ± 0.028
57 | NRRSDKNLPDAT [STE12 C-terminal 12 aa] | 0.7085 ± 0.002 | 0.694 ± 0.0077
58 | NDITLAVYTSAQ [EGO2 C-terminal 12 aa] | 0.6895 ± 0.00082 | 0.651 ± 0.021
59 | LHMNTNRLAGIR [SEC9 C-terminal 12 aa] | 0.7133 ± 0.0013 | 0.718 ± 0.018
60 | LENTLKDSGVLQ [GPA2 C-terminal 12 aa] | 0.692 ± 0.002 | 0.717 ± 0.047
61 | VEKVKKFVEENN [YML108W C-terminal 12 aa] | 0.678 ± 0.007 | 0.651 ± 0.069
